Data on two substances can be found in PMC9553925.

Assay [1] deals with ATP synthase subunit-c (T. brucei) (T. brucei (endogenous in procyclic Lister strain 427)). The experiment in a line: cryo-EM structure; ATP synthase dimers purified from T. brucei procyclic mitochondria in GDN with added β-DDM and phospholipids, pH 8.0; consensus dimer 3.2 Å, membrane region 2.7 Å, peripheral stalk 3.7 Å, rotor 3.7 Å, ten rotational substates 3.5–4.3 Å.
Assay [2] deals with Trypanosoma brucei mitochondrial F1Fo ATP synthase (monomer unit of the dimer) (T. brucei (endogenous in procyclic Lister strain 427)) (UniProt P24499). The assay is described as above.

As for “ATP synthase subunit-c (T. brucei) (natural protein)”, the stoichiometry N in assay [1] was determined as 10.

In assay [2], “Trypanosoma brucei mitochondrial F1Fo ATP synthase (monomer unit of the dimer) (from UniProt P24499 1-229) (complex)” had a stoichiometry N of 2.
